{"source": "paper PMC5708760", "biological_target": "flag-tagged ErbB2 (Xenopus laevis, wild type) (Xenopus laevis)"}
{"substance": "recombinant EC1-3 (bacEC) (domain or fragment)", "values": [{"measurement": "phospho-Akt (S473) by western blot, normalised to GFP-myc, in ErbB2-transfected, serum-starved Hek293T cells treated with 10 ng/mL bacEC for 1 to 60 minutes", "value": 20, "unit": "%"}]}
